In the supplement of paper PMC6379048:

Experiments:
Experiment in all cases: EC50 of free RNA motif oligo competing protein binding to immobilised probe
RTCA = target: T1, RTCA (UniProt O00442)
T1 sequence: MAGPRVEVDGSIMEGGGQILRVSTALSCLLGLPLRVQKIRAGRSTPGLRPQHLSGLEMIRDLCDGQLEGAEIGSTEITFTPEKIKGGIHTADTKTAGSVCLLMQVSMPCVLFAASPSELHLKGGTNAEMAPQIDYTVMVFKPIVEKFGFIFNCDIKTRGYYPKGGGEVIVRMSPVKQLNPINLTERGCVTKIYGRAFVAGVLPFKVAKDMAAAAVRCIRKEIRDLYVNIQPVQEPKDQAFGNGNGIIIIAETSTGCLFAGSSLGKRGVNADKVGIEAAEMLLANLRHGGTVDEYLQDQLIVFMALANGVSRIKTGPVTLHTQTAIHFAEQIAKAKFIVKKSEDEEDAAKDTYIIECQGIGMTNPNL
Procedure: (§1)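 Competition-binding assay: HEK293-FT cell lysate (2.5 mg protein) pre-incubated 1 h at 4°C with free motif-containing RNA oligos (0 to 30 µM, 12 doses), then pulled down with the same 5'-amino-C6 RNA oligos immobilised on NHS-Sepharose beads (30 min, 4°C). Bound proteins were quantified by label-free LC-MS/MS and normalised to the water control. EC50 came from a four-parameter log-logistic fit; Kd = EC50 x depletion factor. Random/reversed control probes are dropped.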

DHX36 = target: T2, DHX36 (UniProt Q9H2U1)
T2 sequence: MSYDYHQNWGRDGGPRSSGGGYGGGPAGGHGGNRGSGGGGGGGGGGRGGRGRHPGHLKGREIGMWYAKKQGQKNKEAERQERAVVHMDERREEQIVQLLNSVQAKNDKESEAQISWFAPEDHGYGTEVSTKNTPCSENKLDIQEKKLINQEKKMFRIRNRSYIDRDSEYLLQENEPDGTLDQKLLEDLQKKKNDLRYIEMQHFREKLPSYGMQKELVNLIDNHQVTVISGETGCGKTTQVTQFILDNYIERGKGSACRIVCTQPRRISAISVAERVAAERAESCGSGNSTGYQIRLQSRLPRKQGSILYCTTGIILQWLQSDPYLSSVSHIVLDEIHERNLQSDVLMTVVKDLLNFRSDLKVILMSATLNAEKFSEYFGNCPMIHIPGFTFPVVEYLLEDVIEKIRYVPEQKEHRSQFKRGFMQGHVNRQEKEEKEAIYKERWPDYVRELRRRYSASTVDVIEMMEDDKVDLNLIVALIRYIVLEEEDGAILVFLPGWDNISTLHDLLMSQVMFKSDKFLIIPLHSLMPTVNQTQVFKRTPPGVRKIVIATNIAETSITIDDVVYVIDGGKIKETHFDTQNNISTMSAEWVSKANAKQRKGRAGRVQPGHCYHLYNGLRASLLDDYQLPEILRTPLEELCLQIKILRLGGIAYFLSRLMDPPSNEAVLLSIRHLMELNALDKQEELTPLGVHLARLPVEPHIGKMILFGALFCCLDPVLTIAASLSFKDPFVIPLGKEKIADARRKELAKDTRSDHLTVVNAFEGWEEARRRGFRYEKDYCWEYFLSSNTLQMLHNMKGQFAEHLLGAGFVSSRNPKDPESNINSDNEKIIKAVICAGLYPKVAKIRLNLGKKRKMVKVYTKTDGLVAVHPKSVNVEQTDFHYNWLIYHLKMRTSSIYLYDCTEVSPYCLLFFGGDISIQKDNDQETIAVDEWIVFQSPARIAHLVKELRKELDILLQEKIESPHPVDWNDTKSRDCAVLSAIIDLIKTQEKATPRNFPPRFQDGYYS
Procedure: as §1

CELF2 = target: T3, CELF2 (UniProt O95319)
T3 sequence: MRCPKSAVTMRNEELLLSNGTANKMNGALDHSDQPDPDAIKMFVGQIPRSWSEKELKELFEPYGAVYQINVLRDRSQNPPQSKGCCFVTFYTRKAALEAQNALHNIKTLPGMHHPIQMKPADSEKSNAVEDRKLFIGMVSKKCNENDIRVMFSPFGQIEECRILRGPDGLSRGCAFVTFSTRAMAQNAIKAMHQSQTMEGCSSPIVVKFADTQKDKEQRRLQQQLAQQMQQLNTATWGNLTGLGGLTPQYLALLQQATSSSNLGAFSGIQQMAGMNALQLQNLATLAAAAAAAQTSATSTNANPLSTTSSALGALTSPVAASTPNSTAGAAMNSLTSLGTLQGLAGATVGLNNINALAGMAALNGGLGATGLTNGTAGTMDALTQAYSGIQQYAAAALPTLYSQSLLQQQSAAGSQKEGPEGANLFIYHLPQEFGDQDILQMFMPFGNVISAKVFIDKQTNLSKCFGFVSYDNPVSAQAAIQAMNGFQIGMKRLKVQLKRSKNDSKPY
Procedure: as §1

Sequence	EC50 (RTCA)	EC50 (DHX36)	EC50 (CELF2)
UAUUUAU	381 nM	1010 nM	517 nM
CUGUCCU	1940 nM	5030 nM	2670 nM
AAUAAA	566 nM	3290 nM	1250 nM
